Results on 1 substance are retold here after patent US20240382513A1.

For the assay, the target named is transferrin receptor (on Hepa 1-6 cells; in tissues of C57BL/6 wild-type mice) (mouse) (UniProt Q62351). The experiment in a line: cell-based or functional assay.
Sequence of UniProt Q62351 (Q62351 whole entry): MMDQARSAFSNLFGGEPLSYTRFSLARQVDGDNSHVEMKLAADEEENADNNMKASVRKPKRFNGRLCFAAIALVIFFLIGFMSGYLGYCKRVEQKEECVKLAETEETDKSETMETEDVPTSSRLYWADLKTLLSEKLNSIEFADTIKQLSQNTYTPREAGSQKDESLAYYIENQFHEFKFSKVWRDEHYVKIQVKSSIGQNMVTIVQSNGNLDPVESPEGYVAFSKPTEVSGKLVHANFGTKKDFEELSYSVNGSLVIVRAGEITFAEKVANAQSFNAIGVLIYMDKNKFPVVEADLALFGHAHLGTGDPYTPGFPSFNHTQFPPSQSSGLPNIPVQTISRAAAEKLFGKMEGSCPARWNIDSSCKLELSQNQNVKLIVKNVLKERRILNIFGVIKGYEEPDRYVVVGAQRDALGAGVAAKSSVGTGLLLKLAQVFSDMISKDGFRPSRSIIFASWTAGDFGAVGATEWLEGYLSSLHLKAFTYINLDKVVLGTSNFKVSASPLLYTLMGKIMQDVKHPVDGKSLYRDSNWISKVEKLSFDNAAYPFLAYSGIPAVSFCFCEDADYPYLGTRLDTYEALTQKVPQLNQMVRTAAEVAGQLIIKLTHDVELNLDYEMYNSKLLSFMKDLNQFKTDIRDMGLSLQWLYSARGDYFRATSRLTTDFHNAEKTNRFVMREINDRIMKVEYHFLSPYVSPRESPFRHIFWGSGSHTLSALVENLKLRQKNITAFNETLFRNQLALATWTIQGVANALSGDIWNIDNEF

“antiTfR-siHPRT complex: RI7 217 anti-TfR1 Fab (DTX-A-002) covalently linked via a non-cleavable GMBS linker to the HPRT siRNA (siHPRT)” came in with an HPRT expression in gastrocnemius of C57BL/6 mice, three days after a single i.v. dose (2 mg/kg of RNA) of 31%; an HPRT expression in heart of C57BL/6 mice, three days after a single i.v. dose (2 mg/kg of RNA) of 30%; a decrease in HPRT expression in Hepa 1-6 cells after 72 hour incubation with 100 nM complex of 50%.
